B1: Serine protease HTRA3 (Homo sapiens), P83110-2 (parent)
chain: MQARALLLAALAALALAREPPAAPCPARCDVSRCPSPRCPGGYVPDLCNCCLVCAASEGEPCGGPLDSPCGESLECVRGLCRCRWSHAVCGTDGHTYANVCALQAASRRALQLSGTPVRQLQKGACPLGLHQLSSPRYKFNFIADVVEKIAPAVVHIELFLRHPLFGRNVPLSSGSGFIMSEAGLIITNAHVVSSNSAAPGRQQLKVQLQNGDSYEATIKDIDKKSDIATIKIHPKKKLPVLLLGHSADLRPGEFVVAIGSPFALQNTVTTGIVSTAQREGRELGLRDSDMDYIQTDAIINYGNSGGPLVNLDGEVIGINTLKVTAGISFAIPSDRITRFLTEFQDKQIKAPSLAVH
B2: Serine protease HTRA3 (Homo sapiens), P83110-1 (parent)
chain: MQARALLLAALAALALAREPPAAPCPARCDVSRCPSPRCPGGYVPDLCNCCLVCAASEGEPCGGPLDSPCGESLECVRGLCRCRWSHAVCGTDGHTYANVCALQAASRRALQLSGTPVRQLQKGACPLGLHQLSSPRYKFNFIADVVEKIAPAVVHIELFLRHPLFGRNVPLSSGSGFIMSEAGLIITNAHVVSSNSAAPGRQQLKVQLQNGDSYEATIKDIDKKSDIATIKIHPKKKLPVLLLGHSADLRPGEFVVAIGSPFALQNTVTTGIVSTAQREGRELGLRDSDMDYIQTDAIINYGNSGGPLVNLDGEVIGINTLKVTAGISFAIPSDRITRFLTEFQDKQIKDWKKRFIGIRMRTITPSLVDELKASNPDFPEVSSGIYVQEVAPNSPSQRGGIQDGDIIVKVNGRPLVDSSELQEAVLTESPLLLEVRRGNDDLLFSIAPEVVM

Variants of: B1
Conditions: with xiap_human XIAP
Target sequence in this assay (P98170 whole entry): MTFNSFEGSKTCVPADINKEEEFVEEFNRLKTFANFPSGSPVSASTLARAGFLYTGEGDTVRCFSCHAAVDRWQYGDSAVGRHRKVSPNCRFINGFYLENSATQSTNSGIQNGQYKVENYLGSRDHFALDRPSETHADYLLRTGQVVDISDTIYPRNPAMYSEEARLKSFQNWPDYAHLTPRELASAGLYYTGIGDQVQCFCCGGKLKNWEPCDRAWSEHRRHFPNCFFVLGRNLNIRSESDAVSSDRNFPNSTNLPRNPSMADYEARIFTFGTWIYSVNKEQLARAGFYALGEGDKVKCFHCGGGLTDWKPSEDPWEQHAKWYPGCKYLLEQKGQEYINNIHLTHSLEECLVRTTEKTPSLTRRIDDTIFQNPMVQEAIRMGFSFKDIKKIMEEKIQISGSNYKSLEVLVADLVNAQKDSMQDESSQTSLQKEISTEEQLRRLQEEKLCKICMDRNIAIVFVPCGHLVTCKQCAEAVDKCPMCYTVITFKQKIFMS
With MQARALLLAALAALALAREPPAAPCPARCDVSRCPSPRCPGGYVPDLCNCCLVCAASEGEPCGGPLDSPCGESLECVRGLCRCRWSHAVCGTDGHTYANVCALQAASRRALQLSGTPVRQLQKGACPLGLHQLSSPRYKFNFIADVVEKIAPAVVHIELFLRHPLFGRNVPLSSGSGFIMSEAGLIITNAHVVSSNSAAPGRQQLKVQLQNGDSYEATIKDIDKKSDIATIKIHPKKKLPVLLLGHSADLRPGEFVVAIGSPFALQNTVTTGIVSTAQREGRELGLRDSDMDYIQTDAIINYGNAGGPLVNLDGEVIGINTLKVTAGISFAIPSDRITRFLTEFQDKQIKAPSLAVH [S305A] the “effect of a mutation on the interaction” value was “decreasing interaction strength”.

Variants of: B2
Conditions: with xiap_human XIAP
Target sequence in this assay (P98170 whole entry): as the sequence (P98170 whole entry) above
For MQARALLLAALAALALAREPPAAPCPARCDVSRCPSPRCPGGYVPDLCNCCLVCAASEGEPCGGPLDSPCGESLECVRGLCRCRWSHAVCGTDGHTYANVCALQAASRRALQLSGTPVRQLQKGACPLGLHQLSSPRYKFNFIADVVEKIAPAVVHIELFLRHPLFGRNVPLSSGSGFIMSEAGLIITNAHVVSSNSAAPGRQQLKVQLQNGDSYEATIKDIDKKSDIATIKIHPKKKLPVLLLGHSADLRPGEFVVAIGSPFALQNTVTTGIVSTAQREGRELGLRDSDMDYIQTDAIINYGNAGGPLVNLDGEVIGINTLKVTAGISFAIPSDRITRFLTEFQDKQIKDWKKRFIGIRMRTITPSLVDELKASNPDFPEVSSGIYVQEVAPNSPSQRGGIQDGDIIVKVNGRPLVDSSELQEAVLTESPLLLEVRRGNDDLLFSIAPEVVM [S305A], the “effect of a mutation on the interaction” value was “decreasing interaction strength”.

— IntAct's records for PubMed 31260151
